The results in this text go back to US20250206836A1 (ONA THERAPEUTICS S L, published 2025).

The target in assay [1] is T1, human CD36 (on HEK 293 or SCC25 cells) (human, UniProt P16671 2-472). Kind of assay: cell-based or functional assay.
Assay [2] concerns the target T1, human CD36 (on HEK 293 or SCC25 cells). In words: FACS, SCC25 cells stably overexpressing human CD36. On the technique in general: A flow cytometer gives signals particle by particle.
Assay [3] shares this target. Kind of assay: FACS, HEK 293 cells transiently overexpressing CD36.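 Note: antibody binding to transfected cells detected by flow cytometry with a fluorescent anti-human secondary antibody, EC50 from a four-parameter sigmoidal fit of mean fluorescence intensity.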
The target in assay [4] is T2, nonhuman primate CD36 (on HEK 293 cells) (cynomolgus monkey / rhesus macaque, UniProt P16671 2-472 (human entry)).
T2 construct: also called non-human primate CD36 (cynomolgus)
T2 sequence (P16671 other isoform, or with tags, fused parts or gaps limits assumed): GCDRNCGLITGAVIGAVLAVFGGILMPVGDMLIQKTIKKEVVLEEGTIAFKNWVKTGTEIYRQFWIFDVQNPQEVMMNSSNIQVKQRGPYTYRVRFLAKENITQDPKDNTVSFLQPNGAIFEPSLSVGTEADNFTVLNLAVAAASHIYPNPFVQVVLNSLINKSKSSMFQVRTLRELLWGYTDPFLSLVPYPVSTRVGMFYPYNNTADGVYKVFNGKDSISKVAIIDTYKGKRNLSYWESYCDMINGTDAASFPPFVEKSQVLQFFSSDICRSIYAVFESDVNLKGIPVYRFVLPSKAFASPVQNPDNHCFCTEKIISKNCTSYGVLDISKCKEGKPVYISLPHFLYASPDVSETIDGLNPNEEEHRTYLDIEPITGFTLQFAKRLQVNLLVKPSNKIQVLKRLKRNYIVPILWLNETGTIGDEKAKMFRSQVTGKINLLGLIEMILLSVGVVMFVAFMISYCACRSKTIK
The assay is described as above.

The target in assay [5] is T3, mouse CD36 (on HEK 293 cells) (mouse, UniProt Q08857 1-472).
T3 construct: also called Murine CD36
T3 sequence (Q08857 whole entry): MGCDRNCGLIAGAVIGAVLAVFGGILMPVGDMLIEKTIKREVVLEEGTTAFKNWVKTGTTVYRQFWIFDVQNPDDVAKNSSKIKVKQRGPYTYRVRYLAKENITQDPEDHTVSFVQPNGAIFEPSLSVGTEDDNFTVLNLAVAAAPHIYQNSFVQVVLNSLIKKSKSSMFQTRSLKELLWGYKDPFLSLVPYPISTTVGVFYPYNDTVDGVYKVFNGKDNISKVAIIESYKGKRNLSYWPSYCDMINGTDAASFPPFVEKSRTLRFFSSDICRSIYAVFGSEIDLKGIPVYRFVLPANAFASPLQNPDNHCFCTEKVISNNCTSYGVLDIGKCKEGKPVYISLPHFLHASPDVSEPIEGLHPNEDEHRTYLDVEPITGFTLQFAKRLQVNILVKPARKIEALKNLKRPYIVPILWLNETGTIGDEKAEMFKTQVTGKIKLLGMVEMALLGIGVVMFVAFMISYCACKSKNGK
The assay is described as above.

Assay [6] addresses purified biotin-tagged human CD36 (human, UniProt P16671 30-439, limits assumed, biotin tag, site not stated). In words: AlphaScreen competition; competitor 1G04 on acceptor beads. (Alpha assays give light when donor and acceptor beads are brought close together.)
Assay [7] addresses T1, human CD36 (on HEK 293 or SCC25 cells). In words: cell-based or functional assay. This is another data set of the same source.

A word on the EC50: it is the concentration that produces a half-maximal response.

Bounds are passed on as bounds.

purified biotin-tagged human CD36, sequence (P16671 30-439 limits assumed): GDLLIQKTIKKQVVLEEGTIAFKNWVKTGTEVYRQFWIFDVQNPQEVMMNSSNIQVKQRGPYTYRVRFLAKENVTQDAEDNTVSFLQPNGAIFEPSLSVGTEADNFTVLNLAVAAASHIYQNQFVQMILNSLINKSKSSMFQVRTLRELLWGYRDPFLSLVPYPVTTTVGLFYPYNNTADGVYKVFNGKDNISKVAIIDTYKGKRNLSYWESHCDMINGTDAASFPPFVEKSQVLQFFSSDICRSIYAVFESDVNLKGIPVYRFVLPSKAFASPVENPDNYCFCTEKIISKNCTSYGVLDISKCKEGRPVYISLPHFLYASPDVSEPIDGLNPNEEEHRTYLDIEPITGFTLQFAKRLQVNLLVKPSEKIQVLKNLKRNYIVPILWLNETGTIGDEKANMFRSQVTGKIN
T1 sequence (P16671 2-472 limits assumed): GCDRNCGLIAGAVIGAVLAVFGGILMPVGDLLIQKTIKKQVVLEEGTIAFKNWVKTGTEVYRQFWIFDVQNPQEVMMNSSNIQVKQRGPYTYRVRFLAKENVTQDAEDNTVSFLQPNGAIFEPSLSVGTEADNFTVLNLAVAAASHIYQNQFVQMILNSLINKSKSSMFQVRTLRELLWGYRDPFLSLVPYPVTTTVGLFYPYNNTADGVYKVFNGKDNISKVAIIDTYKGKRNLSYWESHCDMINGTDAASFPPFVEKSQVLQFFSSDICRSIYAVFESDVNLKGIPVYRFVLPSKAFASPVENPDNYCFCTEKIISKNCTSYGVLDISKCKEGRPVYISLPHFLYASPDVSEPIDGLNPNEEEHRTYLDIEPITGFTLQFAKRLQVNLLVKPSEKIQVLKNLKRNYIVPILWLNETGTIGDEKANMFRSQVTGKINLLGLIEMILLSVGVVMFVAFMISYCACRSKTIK

B1: 10G04 (antibody, human IgG1, V domains shown)
VH: DVQLQESGPELVKPGASVKISCKASGYTFTDYNMHWVKQSHGKSLEWIGYIYPYNGGTGYNQKFKSKATLTVDNSSSTAYMELRSLTSEDSAVYYCARDGGYDVYFDYWGQGTTLTVSS
VL: DVVMTQTPLSLPVSLGDQASISCRSSQSLVHSNGNTYLHWYLQKPGQSPKLLIYKVSNRFSGVPDRFSGSGSGTDFTLKISRVEAEDLGVYYCFQGSHVPWTFGGGTKLEIK
notes: Chimeric: mouse variable regions on human IgG1 LALA (L234A/L235A); also called 010G04
As to B1, the “IC50 of fatty acid uptake inhibition (BODIPY FL C16, HEK hCD36 cells)” value (“IC50 of fatty acid uptake inhibition” for short) in assay [1] was 33 nM. Also, the EC50 was 3.3 nM in assay [2], 0.77 nM in assay [3], 1.48 nM in assay [4] and 16 nM in assay [5].

B2: 21G04 (antibody, human IgG1, V domains shown)
VH: QVQLQQSGAELVKPGASVKLSCKASGYTFTSYWMHWVKQRPGQGLEWIGEIDPSDSHTNYNQKFKGKATLTVDKSSSTAYMQLSSLTSEDSAVYYCAPIYYGLDNWGQGTTLTVSS
VL: ETTVTQSQKFMSTSVGDRVSVTCKASQNVGTNVAWYQQKPGQSPKALIYSASYRYSGVPDRFTGSGSGTDFTLTISNVQSEDLAEYFCQQYNSYPFTFGSGTKLEIK
notes: Chimeric: mouse variable regions on human IgG1 LALA (L234A/L235A)
Take B2: the EC50 in assay [3] is 0.36 nM; in assay [4], 6.38 nM; in assay [6], 0.45 nM.

B3: 24G04 (antibody, human IgG1, V domains shown)
VH: QVQLQQSGAELVKPGASVKLSCKASGYTFTSYWMHWVKQRPGQGLEWIGEIDPSDSHANYNQKFKGKATLTVDKSSSTAYMQLSSLTSEDSAVYYCAPIYYGLDNWGQGTTLTVSS
VL: DIVMTQSQKFLSTSVGDRVSVTCKASQNVGTNVAWYQQKPGQSPKVLIYSASYRYSGVPDRFTGSGSGTDFTLTVSNVQSEDLAEYFCQQYNNYPLTFGAGTKLELK
notes: as for B2
On to B3, for which the EC50 in assay [3] was 0.26 nM; in assay [4], 0.81 nM; in assay [6], 0.29 nM.

B4: 25G04 (antibody, human IgG1, V domains shown)
VH: EVQLQQSGAELVKPGASVKLSCKASGYTFTSYWMHWVKQRPGQGLEWIGEIDPSDSHANYNQKFKGKATLTVDKSSSTAYMQLSSLTSEDSAVYYCAPIYYGLDNWGQGTTLTVSS
VL: DIVLTQSQKFMSTSVGDRVSVTCKASQNVGTNVAWYQQKPGQSPKALIYSASYRYSGVPDRFTGSGSGTDFTLTISNVQPEDLAEYFCQQYNSYPLTFGGGTKLEIK
notes: as for B2
Turning to B4, the EC50 amounted to 0.74 nM in assay [3], 2.19 nM in assay [4] and 0.29 nM in assay [6].

B5: 23G04 (antibody, human IgG1, V domains shown)
VH: QVQLQQPGTELVKPGASVKLSCKASGYTFTSYWMHWVKQRPGQGLEWIGEIDPSDSHTNYNQKFKGKATLTVDKSSSTAYMQLSSLTSEDSAVYYCAPIYYGLDNWGQGTTLTVSS
VL: DIVLTQSQKFMSTSVGDRVSVTCKASQNVGTNVAWYQQKPGQSPKALIYSASYRYSGVPDRFTGSGSGTDFTLTISNVQSEDLAEYFCQQYNSYPYTFGGGTKLEIK
notes: Chimeric: mouse variable regions on human IgG1 LALA (L234A/L235A); also called 023G04
For the molecule B5, the “IC50 of fatty acid uptake inhibition” value in assay [1] is 1 nM. In addition, the EC50 in assay [3] is 0.3 nM; in assay [4] it was 1.69 nM; in assay [6] it was 0.28 nM.

B6: 22G04 (antibody, human IgG1, V domains shown)
VH: QVQLQQPGAELVKPGASVKLSCKASGYTFTSYWMHWVKQRPGQGLEWIGEIDPSDSHANYNQKFKGKATLTVDKSSSTAYMQLSSLTSEDSAVYYCAPIHYGLDNWGQGTTLTVSS
VL: DIVLTQSQKFMSTSVGDRVSVTCKASQNVGTNVAWYQQKPGQSPKALIYSASYRYSGVPDRFTGSGSGTDFTLTISNVQSEDLAEYFCQQYNSYPLTFGAGTKLELK
notes: as for B2
On to B6, for which the figures for the EC50 in assay [3], in assay [4] and in assay [6] were 1.25 nM, 1.68 nM and 0.53 nM, respectively.

B7: 32G04 (antibody, human IgG1, V domains shown)
VH: EEKLEESGGGLVQPGGSMKLSCVASGFTFSNYWMNWVRQSPEKGLEWVAEIRLKSNNYATHYAESVKGRFTISRDDSKSSVYLQMNNLRAEDTGIYYCTPLLLRWGQGTTLTVSS
VL: ENVLTQSPAIMSASPGEKVTMTCRASSSLSSTYLHWYQQKSGASPKLWIYSTSNLASGVPARFSGSGSGTSYSLTISSVEAEDAATYYCQQYSGYPLTFGSGTKLEIK
notes: Chimeric: mouse variable regions on human IgG1 LALA (L234A/L235A); also called 032G04
As to B7, in assay [1], the “IC50 of fatty acid uptake inhibition” value worked out at 42 nM. Further, the EC50 in assay [2] was determined as 1.88 nM; in assay [3], 0.94 nM; in assay [4], 6.52 nM; in assay [5], 5.14 nM; in assay [6], 1.46 nM.

B8: 18G04 (antibody, human IgG1, V domains shown)
VH: EVQLQQSGPELVKPGASVKISCETSGHTFTEYTMHWVKQSHGKSLEWIGGIYPNNGATKYNQKFKGKATLTVDKSSSTAYMELRSLTSEDSAVYYCARDRYDVWFAYWGQGTLVTVSA
VL: ETTVTQSPASLSMAIGEKVTIRCITSTDIDDDMNWYQQKPGEPPKLLISEGNTLRPGVPSRFSSSGYGTDFVFTIENLLSEDVADYYCLQSDNLPLTFGGGTKLEIK
notes: Chimeric: mouse variable regions on human IgG1 LALA (L234A/L235A); also called 018G04
Regarding B8, the “IC50 of fatty acid uptake inhibition” value in assay [1] was found to be 2.6 nM. Further, the EC50 was 6.6 nM in assay [4], 14.7 nM in assay [5] and 15.6 nM in assay [6].

B9: 9G04 (antibody, human IgG1, V domains shown)
VH: QVQLQQSGAELVRPGASVTLSCKASGYTFTDYEMHWVKQTPVHGLEWIGTVDPETGGTAFNQKFKDKASLTADKSSSTVYMELRSLTSEDSAVYYCSRGYGNYGAWFAYWGQGTLVTVSA
VL: ETTVTQSPASLSVATGEKVTIRCITSTDIDDDMNWYQQKPGEPPKLLISEGNTLRPGVPSRFSSSGYGTDFVFTIENMLSEDVADYYCLQSDNLPFTFGSGTKLEIK
notes: Chimeric: mouse variable regions on human IgG1 LALA (L234A/L235A); also called 09G04; 009G04
In the case of B9, in assay [7], the “Percent Fatty Acid Uptake Inhibition” value is 41.1%. The “IC50 of fatty acid uptake inhibition” value in assay [1] was found to be 170 nM. Besides, the EC50 in assay [2] was 0.41 nM; in assay [3] it was 0.5 nM; in assay [4] it was 13.9 nM; in assay [5], 12 nM; in assay [6], 2.06 nM.

B10: 12G04 (antibody, human IgG1, V domains shown)
VH: EVQLVESGGGLVQPGESLKLSCESNEYEFPSHDMSWVRKTPEKRLELVAAINSDGGYTYYPDTMERRFIISRDNTKKTLYLQMSSLRSEDTALYYCARHGYDYDEEGAWFAYWGQGTLVTVSA
VL: ETTVTQSPASLSMAIGEKVTIRCITSTDIDDDMNWYQQKPGEPPKLLISEGNTLRPGVPSRFSSTGYGTDFVFSIENMLSEDVADYYCLQSDNLPFTFGSGTKLEIK
notes: Chimeric: mouse variable regions on human IgG1 LALA (L234A/L235A); also called 012G04
As to B10, in assay [7], the “Percent Fatty Acid Uptake Inhibition” value came out at 43.8%. The “IC50 of fatty acid uptake inhibition” value in assay [1] stood at 3.9 nM. Moreover, the EC50 is 0.39 nM in assay [2]; 0.31 nM in assay [3]; 0.67 nM in assay [4]; 1.2 nM in assay [5]; 0.78 nM in assay [6].

B11: 5G04 (antibody, human IgG1, V domains shown)
VH: QVQLQQSGAELVMPGASVKMSCKASGYTFTDYWMHWVKQRPGQGLEWIGAIDTSDSYTSYNQKFKGKATLTVDESSSTAYMQLSSLTSEDSAVYYCARDYYGSSTAWFAYWGQGTLVTVSA
VL: ETTVTQSPASLSMAIGEKVTIRCITSTDIDDDMNWYQQKPGEPPKLLISEGNTLRPGVPSRFSSSGYGTDFVFTIDNMLSEDVADYYCLQSDNLPFTFGSGTKLEIK
notes: Chimeric: mouse variable regions on human IgG1 LALA (L234A/L235A); also called 05G04; 005G04
As to B11, the “IC50 of fatty acid uptake inhibition” value in assay [1] was more than 1000 nM. In addition, the EC50 in assay [4] is 2.43 nM; in assay [5], 5.03 nM; in assay [6], 0.02 nM.

B12: 17G04 (antibody, human IgG1, V domains shown)
VH: EVQLQQSGPELVKPGASVKISCKTSGYTFTEYTMHWVKQSHGKSLEWIGGIYPYNGGTAYNQKFKNKATLTVDISSNTAYMALRSLASDDSAVYYCASDYFYGDGYPWFTYWGQGTLVTVSA
VL: ETTVTQSPASLSVATGEKVTIRCITSTDIDDDMNWYQQRPGEPPNLLISEGNTLRPGVPSRFSSSGYGTDFVFTIENTLSEDVADYYCLQSDNLPFTFGSGTRLEIK
notes: as for B2
Turning to B12, the EC50 in assay [3] came to 1.25 nM; in assay [4], 4.03 nM; in assay [5] it was 9.31 nM; in assay [6], 0.52 nM.
